{"source": "paper PMC8501077", "about": "(Nature Communications, 2021)", "key": {"[1]": {"biological_target": "FLAG-tagged Sei1∆231-243, locking helix replaced by a flexible linker (S. cerevisiae) (UniProt Q06058)", "experiment": "cryo-EM structure; single-particle cryo-EM of FLAG-purified protein in DDM/CHS (50 mM Tris.HCl pH7.4, 200 mM NaCl, 1 mM EDTA); C10 symmetry applied"}, "[2]": {"biological_target": "the molecule itself", "experiment": "cryo-EM structure; single-particle cryo-EM of FLAG-purified protein in DDM/CHS (50 mM Tris.HCl pH7.4, 200 mM NaCl, 1 mM EDTA); C10 symmetry applied"}}}
{"molecule": "FLAG-tagged Sei1∆231-243, locking helix replaced by a flexible linker (from UniProt Q06058 1-230; Q06058 244-285) (natural protein)", "values": [{"measurement": "stoichiometry N", "setting": "[1]", "result": 10}]}
{"molecule": "C-terminally 3xFLAG tagged Sei1 (yeast Seipin) (natural protein, S. cerevisiae, Sei1, the yeast Seipin, S. cerevisiae; model built for residues 24-132 and 145-265; also called Sei1-FLAG; WT Sei1; source: S. cerevisiae, plasmid-borne, in detergent extract of crude membranes; not shown: 3xFLAG, C-terminal, kept; copies: 10) MKINVSRPLQFLQWSSYIVVAFLIQLLIILPLSILIYHDFYLRLLPADSSNVVPLNTFNILNGVQFGTKFFQSIKSIPVGTDLPQTIDNGLSQLIPMRDNMEYKLDLNLQLYCQSKTDHLNLDNLLIDVYRGPGPLLGAPGGSNSKDEKIFHTSRPIVCLALTDSMSPQEIEQLGPSRLDVYDEEWLNTIRIEDKISLESSYETISVFLKTEIAQRNLIIHPESGIKFRMNFEQGLRNLMLRKRFLSYIIGISIFHCIICVLFFITGCTAFIFVRKGQEKSKKHS", "values": [{"measurement": "stoichiometry N", "setting": "[2]", "result": 10}]}
